We go through 34 variants from the Human Domainome abundance scans (Beltran et al. 2025).

± gives the uncertainty stated by the source.

The chains are these.
B1: Ankyrin-1, residues 1405 to 1484; numbered along this chain, P16157 (parent)
chain: MKMAVISEHLGLSWAELARELQFSVEDINRIRVENPNSLLEQSVALLNLWVIREGQNANMENLYTALQSIDRGEIVNMLE

In this series the parent is B1. Description: abundance fitness (aPCA) (normalised: wild type 0, dead -1); higher = more abundant; growth selection in yeast, the domain comes from the species named. The conditions noted are these: Homo sapiens.
As to MKMAVISEHLGLSWAELARELQFSVEDMNRIRVENPNSLLEQSVALLNLWVIREGQNANMENLYTALQSIDRGEIVNMLE [I28M], the abundance fitness was -0.341 ± 0.13.

On to MKMAVISEHLGLSWAELARELQFSVEDGNRIRVENPNSLLEQSVALLNLWVIREGQNANMENLYTALQSIDRGEIVNMLE [I28G], for which the abundance fitness was -0.891 ± 0.11.

Turning to MKMAVISEHLGLSWAELARELQFSVEDKNRIRVENPNSLLEQSVALLNLWVIREGQNANMENLYTALQSIDRGEIVNMLE [I28K], the abundance fitness is -0.686 ± 0.18.

With MKMAVISEHLGLSWAELARELQFSVEDSNRIRVENPNSLLEQSVALLNLWVIREGQNANMENLYTALQSIDRGEIVNMLE [I28S], the abundance fitness was -0.797 ± 0.11.

MKMAVISEHLGLSWAELARELQFSVEDLNRIRVENPNSLLEQSVALLNLWVIREGQNANMENLYTALQSIDRGEIVNMLE [I28L]: the abundance fitness is -0.529 ± 0.083.

On to MKMAVISEHLGLSWAELARELQFSVEDQNRIRVENPNSLLEQSVALLNLWVIREGQNANMENLYTALQSIDRGEIVNMLE [I28Q], for which the abundance fitness is -0.577 ± 0.22.

As to MKMAVISEHLGLSWAELARELQFSVEDCNRIRVENPNSLLEQSVALLNLWVIREGQNANMENLYTALQSIDRGEIVNMLE [I28C], the abundance fitness is -0.198 ± 0.087.

In the case of MKMAVISEHLGLSWAELARELQFSVEDRNRIRVENPNSLLEQSVALLNLWVIREGQNANMENLYTALQSIDRGEIVNMLE [I28R], the abundance fitness was -0.571 ± 0.071.

As for MKMAVISEHLGLSWAELARELQFSVEDYNRIRVENPNSLLEQSVALLNLWVIREGQNANMENLYTALQSIDRGEIVNMLE [I28Y], the abundance fitness is -0.485 ± 0.2.

Turning to MKMAVISEHLGLSWAELARELQFSVEDPNRIRVENPNSLLEQSVALLNLWVIREGQNANMENLYTALQSIDRGEIVNMLE [I28P], the abundance fitness is -0.58 ± 0.14.

With MKMAVISEHLGLSWAELARELQFSVEDENRIRVENPNSLLEQSVALLNLWVIREGQNANMENLYTALQSIDRGEIVNMLE [I28E], the abundance fitness was -0.627 ± 0.11.

Turning to MKMAVISEHLGLSWAELARELQFSVEDVNRIRVENPNSLLEQSVALLNLWVIREGQNANMENLYTALQSIDRGEIVNMLE [I28V], the abundance fitness was -0.1 ± 0.051.

As to MKMAVISEHLGLSWAELARELQFSVEDFNRIRVENPNSLLEQSVALLNLWVIREGQNANMENLYTALQSIDRGEIVNMLE [I28F], the abundance fitness is -0.738 ± 0.22.

With MKMAVISEHLGLSWAELARELQFSVEDANRIRVENPNSLLEQSVALLNLWVIREGQNANMENLYTALQSIDRGEIVNMLE [I28A], the abundance fitness is -0.522 ± 0.066.

MKMAVISEHLGLSWAELARELQFSVEDTNRIRVENPNSLLEQSVALLNLWVIREGQNANMENLYTALQSIDRGEIVNMLE [I28T]: the abundance fitness is -0.43 ± 0.11.

Turning to MKMAVISEHLGLSWAELARELQFSVEDDNRIRVENPNSLLEQSVALLNLWVIREGQNANMENLYTALQSIDRGEIVNMLE [I28D], the abundance fitness was -0.584 ± 0.43.

Turning to MKMAVISEHLGLSWAELARELQFSVEDINRCRVENPNSLLEQSVALLNLWVIREGQNANMENLYTALQSIDRGEIVNMLE [I31C], the abundance fitness was -0.872 ± 0.2.

With MKMAVISEHLGLSWAELARELQFSVEDINRLRVENPNSLLEQSVALLNLWVIREGQNANMENLYTALQSIDRGEIVNMLE [I31L], the abundance fitness is -0.149 ± 0.059.

As to MKMAVISEHLGLSWAELARELQFSVEDINRFRVENPNSLLEQSVALLNLWVIREGQNANMENLYTALQSIDRGEIVNMLE [I31F], the abundance fitness is -0.793 ± 0.44.

Regarding MKMAVISEHLGLSWAELARELQFSVEDINRMRVENPNSLLEQSVALLNLWVIREGQNANMENLYTALQSIDRGEIVNMLE [I31M], the abundance fitness is -0.524 ± 0.12.

Take MKMAVISEHLGLSWAELARELQFSVEDINRDRVENPNSLLEQSVALLNLWVIREGQNANMENLYTALQSIDRGEIVNMLE [I31D]: the abundance fitness is -0.918 ± 0.32.

Turning to MKMAVISEHLGLSWAELARELQFSVEDINRHRVENPNSLLEQSVALLNLWVIREGQNANMENLYTALQSIDRGEIVNMLE [I31H], the abundance fitness was -1.07 ± 0.28.

For the variant MKMAVISEHLGLSWAELARELQFSVEDINRARVENPNSLLEQSVALLNLWVIREGQNANMENLYTALQSIDRGEIVNMLE [I31A], the abundance fitness was -0.855 ± 0.15.

On to MKMAVISEHLGLSWAELARELQFSVEVINRIRVENPNSLLEQSVALLNLWVIREGQNANMENLYTALQSIDRGEIVNMLE [D27V], for which the abundance fitness was -0.089 ± 0.058.

For the variant MKMAVISEHLGLSWAELARELQFSVEYINRIRVENPNSLLEQSVALLNLWVIREGQNANMENLYTALQSIDRGEIVNMLE [D27Y], the abundance fitness is -0.597 ± 0.2.

Take MKMAVISEHLGLSWAELARELQFSVERINRIRVENPNSLLEQSVALLNLWVIREGQNANMENLYTALQSIDRGEIVNMLE [D27R]: the abundance fitness is -0.46 ± 0.071.

Regarding MKMAVISEHLGLSWAELARELQFSVEPINRIRVENPNSLLEQSVALLNLWVIREGQNANMENLYTALQSIDRGEIVNMLE [D27P], the abundance fitness was -0.822 ± 0.23.

As to MKMAVISEHLGLSWAELARELQFSVENINRIRVENPNSLLEQSVALLNLWVIREGQNANMENLYTALQSIDRGEIVNMLE [D27N], the abundance fitness is -0.49 ± 0.22.

Turning to MKMAVISEHLGLSWAELARELQFSVEMINRIRVENPNSLLEQSVALLNLWVIREGQNANMENLYTALQSIDRGEIVNMLE [D27M], the abundance fitness was -0.213 ± 0.14.

Take MKMAVISEHLGLSWAELARELQFSVESINRIRVENPNSLLEQSVALLNLWVIREGQNANMENLYTALQSIDRGEIVNMLE [D27S]: the abundance fitness is -0.127 ± 0.058.

For MKMAVISEHLGLSWAELARELQFSVETINRIRVENPNSLLEQSVALLNLWVIREGQNANMENLYTALQSIDRGEIVNMLE [D27T], the abundance fitness is -0.236 ± 0.14.

MKMAVISEHLGLSWAELARELQFSVEWINRIRVENPNSLLEQSVALLNLWVIREGQNANMENLYTALQSIDRGEIVNMLE [D27W]: the abundance fitness was -0.89 ± 0.15.

On to MKMAVISEHLGLSWAELARELQFSVEDINAIRVENPNSLLEQSVALLNLWVIREGQNANMENLYTALQSIDRGEIVNMLE [R30A], for which the abundance fitness is -0.215 ± 0.059.

MKMAVISEHLGLSWAELARELQFSVEDINIIRVENPNSLLEQSVALLNLWVIREGQNANMENLYTALQSIDRGEIVNMLE [R30I]: the abundance fitness is -0.356 ± 0.2.
